# Experimental data published in the RNAGym collection of RNA variant scans (doi:10.1073/pnas.2313332121).
# This sample holds only a part of the variants without activity.
# B1: TPR 5TU (parent)
# chain: GGAUCUUCUCGAUCUAACAAAAAAGACAAAUCUGCCACAAAGCUUGAGAGCAUCUUCGGAUGCAGAGGCGGCAGCCUUCGGUGGCGCGAUAGCGCCAACGUUCUCAACUAUGACACGCAAAACGCGUGCUCCGUUGAAUGGAGUUUAUCAUG
# Variants of: B1
# Test: polymerase ribozyme fitness, log enrichment relative to wild type (log ratio); higher = more active; in vitro selection for triplet polymerase activity
# How it was run: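 Mutant libraries of each subunit of a heterodimeric triplet polymerase ribozyme were built by PCR and transcribed. Each library went through one round of in vitro selection in triplicate: annealing with biotinylated primer, partner subunit and triplets, frozen incubation at −7 °C, gel excision of extended constructs, streptavidin-bead capture and RT-PCR. Input and output libraries were Illumina-sequenced; only genotypes with ≥10 input reads and ≥1 read per output were kept. Fitness is log2(genotype enrichment/wild-type enrichment), using inverse-variance-weighted replicate averages.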
row,Variant,polymerase ribozyme fitness (log ratio)
1,U13G U56A,-0.285
2,C14A C35U G58A G86A C96U,-3.96
3,C14A C18U A22U A26U U82C C95U U145G U148C C149U,≤ -4.2
4,U13G C35A A52C,≤ -4.2
5,U13G A52G,-1.06
6,C14A A49C C85A U90G G94U A107G G141U,≤ -4.2
7,U13G A28G U53A A64U G141U U145G G152A,≤ -4.2
8,U13G C103A,-2.97
9,C14A C27G A91C A115G,≤ -4.2
10,C14A U53A C96A A98C A120U G141A,-3.99
11,U13G A41G C54G G81A C96G C118U,≤ -4.2
12,C14A A23G A26U C43U C54U C57A C96G G143A,≤ -4.2
13,C14A C85A,-2.69
14,C14A A19G G68A C99A C123U,≤ -4.2
15,C14A C75U,-1.84
16,U13G C14G C57A G71A U101G G124A G141A,≤ -4.2
17,U13G A28U A64C G68A C79U,≤ -4.2
18,C14A G62A C85A G141A,-3.57
19,C14A A52G U55G C99U,-3.48
20,C14A A16G,-0.651
21,U13G A29U C93U C129G,≤ -4.2

row,Variant,polymerase ribozyme fitness (log ratio)
1,U13G C36U A47U G84A A122G A138U,≤ -4.2
2,C14A A17G G74U C85U C99G U101A U148A,≤ -4.2
3,C14A U82G C96G,-2.31
4,C14A A28U G68U G92C C125U A137C A150C,≤ -4.2
5,C14A G84A,-1.24
6,U13G G68C G84A,≤ -4.2
7,U13G C14G U31G,-1.43
8,C14A A19G G48U A66C A73G G84U U135A U151G,≤ -4.2
9,C14A A40C G92C G143A,≤ -4.2
10,C14A U101G,-1.35
11,C14A A17G A22U A24C A41C G70A U78A U90C C129U,≤ -4.2
12,U13G G42A G50U C76A G86C C132A,≤ -4.2
13,U13G G46C C54U G92U,-3.24
14,C14A A24U U90A,≤ -4.2
15,U13G C75A C108G G143A,≤ -4.2
16,C14A U31A U55A G92A C125U A142U,≤ -4.2
17,U13G C57A,-0.243
18,U13G U56A G71A U135C,≤ -4.2
19,C14A C63U G71A C85G G100U,≤ -4.2
20,U13G G58C G62U U82A G86U U127C U146G,≤ -4.2
21,U13G U61A A89U C96U,-3.58

row,Variant,polymerase ribozyme fitness (log ratio)
1,C14A G62U,-1.57
2,U13G C18G U45A G59U U104G U134C G140U U144A,≤ -4.2
3,C14A G86C,-3.85
4,C14A U44G,-4.1
5,U13G C35U C72U C96G C105U G133C,≤ -4.2
6,C14A G59A G84A A106G C125G U148C C149U,≤ -4.2
7,U13G C54G,-3.62
8,C14A G50A C85U G126C,-4.17
9,U13G G136A A137G C149U,-3.07
10,U13G C38U C63U C76U A91G C93G C95U C149U,≤ -4.2
11,C14A C99G,-1.66
12,C14A G83A,-0.809
13,C14A A16U A19U A52G G68A C85G U151G,≤ -4.2
14,C14A A150G,-2.78
15,U13G C85U,-1.63
16,U13G C85A,-2.23
17,U13G U56A C76G A91U C93U,≤ -4.2
18,U13G A122C A142C,-2.05
19,U13G U55A G94A G100A G140U,-4.11
20,U13G G48C G81A C96A,≤ -4.2
21,C14A C35G G59C A64C A73G G141U,≤ -4.2

row,Variant,polymerase ribozyme fitness (log ratio)
1,C14A A20C C27G,≤ -4.2
2,C14A A17U A24C C57U G58C C87A,≤ -4.2
3,U13G A106G,-1.5
4,U13G A40U A60C,≤ -4.2
5,U13G U90G,-4.04
6,U13G C87U,-1.62
7,U13G A47C G88C A91U C105U,≤ -4.2
8,C14A G62C C76A C87A G117U A137C U146G,≤ -4.2
9,U13G U53A A66C G83U C149A,≤ -4.2
10,U13G C85U C96U G100A A115C,≤ -4.2
11,C14A C38A C93G,≤ -4.2
12,C14A A20G C38A A39G C54U A91C A106U G124C,≤ -4.2
13,U13G C36A C85U A115U U139C,≤ -4.2
14,U13G U77G U145G U151G,≤ -4.2
15,U13G G58A C95U C96G,-4.19
16,C14A C35U C57U G59C U134A,-4.18
17,U13G C51G A91C,≤ -4.2
18,C14A C95U,-1.38
19,C14A A23C U56A C75G U77A C93U C95G U102C,≤ -4.2
20,C14A A16U A49G G50A C57A A60G C95G U101C A110G,≤ -4.2
21,C14A G83A C93G A107G,≤ -4.2
